Data as given in US20140072582A1.

Target: complement component C1q human serum (Sigma Cat#:C1740-0.5MG) (human) (UniProt P02745)
Assay: ELISA, C1q coated on the plate

Sequence of UniProt P02745 (P02745 23-245 limits assumed, chain 1 of 3): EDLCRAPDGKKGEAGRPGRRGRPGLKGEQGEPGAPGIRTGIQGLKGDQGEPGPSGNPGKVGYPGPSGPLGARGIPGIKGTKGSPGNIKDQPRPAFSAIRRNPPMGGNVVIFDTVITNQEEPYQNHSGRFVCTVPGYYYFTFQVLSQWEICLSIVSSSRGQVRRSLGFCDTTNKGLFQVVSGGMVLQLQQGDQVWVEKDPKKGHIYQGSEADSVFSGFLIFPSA
Sequence of UniProt P02745 (P02746 28-253 limits assumed, chain 2 of 3, further chain): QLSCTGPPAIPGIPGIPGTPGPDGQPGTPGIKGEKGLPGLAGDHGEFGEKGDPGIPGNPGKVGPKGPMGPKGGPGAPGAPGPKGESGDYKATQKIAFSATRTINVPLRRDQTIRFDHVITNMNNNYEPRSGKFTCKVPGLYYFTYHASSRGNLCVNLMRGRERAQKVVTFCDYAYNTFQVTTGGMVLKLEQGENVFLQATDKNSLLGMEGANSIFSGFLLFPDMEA
Sequence of UniProt P02745 (P02747 29-245 limits assumed, chain 3 of 3, further chain): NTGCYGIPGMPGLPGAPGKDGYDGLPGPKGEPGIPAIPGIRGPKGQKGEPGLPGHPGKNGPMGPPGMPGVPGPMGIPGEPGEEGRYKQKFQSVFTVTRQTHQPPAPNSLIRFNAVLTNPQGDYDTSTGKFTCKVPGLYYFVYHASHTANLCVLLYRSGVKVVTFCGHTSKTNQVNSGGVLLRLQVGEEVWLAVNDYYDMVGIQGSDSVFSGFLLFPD

Substance	EC50 [µg/mL]
GB4500 (Rituximab), anti-CD20 monoclonal antibody	34.5
GB7500 (Adalimumab), anti-TNF monoclonal antibody	202
